Assay results: patent US20220096653A1, “CONJUGATE COMPRISING LIGAND AND CEACAM5 ANTIBODY FAB FRAGMENT” (ASTELLAS PHARMA INC., priority 2019, published 2022)
Where two headings read alike, the source gives them in different places.

Key:
[1] = biological target: human cancer-specific MUC1 peptide (PTL 1) (human); experiment: ELISA on immobilised human cancer-specific MUC1 peptide, 4-parameter fit, duplicate (Example 6-1)
[2] = biological target: human cancer-specific MUC1 peptide (PTL 1) (human); experiment: ELISA on immobilised human cancer-specific MUC1 peptide, 4-parameter fit, duplicate (Example 6-2)
[3] = parameters: species or system mice (BALB/c nu/nu); settings: mouse, in vivo
Description: A Gd-labeled conjugate of the conjugate containing a peptide linker produced in one of the above Examples was administered from the tail vein of tumor-bearing mice so that the protein mass was 0.02 mg (100 μL) per animal. As the tumor-bearing mice used in the present Example, mice (BALB/c nu/nu) that were in a tumor-bearing state brought about by transplanting human colorectal cancer cell line LS174T cells (ATCC(registered trademark); CL-188) at 2.0 to 5.0×10^6 cells/mouse subcutaneously on the back before administration of the sample were used. 24 hours after administration of the sample, the mice were sacrificed, the kidneys and the tumor were removed, and the amounts of Gd in the kidneys and in the tumor were measured using ICP-MS. The present test was carried out in 3 cases in each group, and the mean value of the 3 cases was calculated. The amount of Gd contained per kidney after administration was shown as a percentage of the amount of Gd administered (% of dose/tissue), and the amount of Gd contained per g of tumor tissue was shown as a percentage of the total amount of Gd administered (% of dose/g).

[4] = mouse, in vivo
Description: (§3) A Gd-labeled conjugate of the conjugate containing a peptide linker produced in one of the above Examples was administered from the tail vein of mice (BALB/c or BALB/c nu/nu) so that the protein mass was 0.02 mg (100 μL) per animal. After about 24 hours, the mice were sacrificed and the kidneys were removed, and the amount of Gd in the kidneys was measured using ICP-MS. The present test was carried out in 3 cases in each group, the mean value of the 3 cases was calculated, and the amount of Gd contained per kidney after administration was shown as a percentage (% of dose/tissue) of the total amount of Gd administered.

[5] = parameters: species or system mice (BALB/c or BALB/c nu/nu); settings: mouse, in vivo
Description: as §3

[6] = biological target: human cancer-specific MUC1 peptide; experiment: ELISA binding activity of anti-human MUC1 antibody Fab^5 fragment conjugates (Example 6-1)
human cancer-specific MUC1 peptide, sequence (as listed by the source): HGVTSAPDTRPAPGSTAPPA
Description: (§1) Each anti-human MUC1 antibody Fab^5 fragment conjugate prepared by the method of Example 5 was subjected to ELISA to evaluate the binding activity thereof to human cancer-specific MUC1. In the present test, 20×PBS/Tween 20 Buffer (Thermo Fisher Scientific Inc., 28352) diluted 20-fold with distilled water was used as a wash liquid. In addition, for bovine serum albumin (BSA) used in the present test, 30% Bovine Serum Albumin solution (Sigma-Aldrich, Inc., A9576-50ML) was added in an appropriate proportion for use. A human cancer-specific MUC1 peptide (PTL 1) at 0.5 μmol/L was added to a Nunc MaxiSorp White 384 plate (Nunc, 460372) at 30 μL per well, and the plate was incubated overnight at 4° C. for immobilization. The MUC1 peptide was removed by reverse centrifugation, and then blocking was carried out by adding a PBS/Tween 20 buffer containing 5.0% BSA. Thereafter, the blocking solution was removed by reverse centrifugation, a solution of each anti-human MUC1 antibody Fab^5 fragment conjugate (Ex-No. 104, 108, or 112) described above at about 10000 ng/mL was diluted in 14 steps by 3-fold dilution using a PBS/Tween 20 buffer containing 1.0% BSA, and 30 μL was added per well and incubated at room temperature for 60 minutes. The plate was washed 3 times with a PBS/Tween 20 buffer, and Horseradish Peroxidase-labeled goat anti-human IgK antibody (Southern Biotechnology Associates, Inc.) diluted 10000-fold using a PBS/Tween 20 buffer containing 5.0% BSA was added at 30 μL per well and incubated at room temperature for 30 minutes. The plate was washed 3 times with a PBS/Tween 20 buffer, and ECL Prime Western Blotting DETECTION Reagent (GE Healthcare, RPN2232) as a substrate was added at 30 μL per well. The substrate was incubated at room temperature for 15 minutes, and then a signal value thereof was measured using an Envision counter (PerkinElmer, Inc.).
(§2) The test for each antibody was carried out in duplicate, and the EC50 value was calculated using a 4-parameter logistic curve model.

[7] = biological target: human cancer-specific MUC1 peptide (Homo sapiens, UniProt P15941); experiment: ELISA binding activity of anti-human MUC1 antibody Fab^5 fragment conjugates (Example 6-2)
Description: as §1, with “101-113)” for “104, 108, or 112)”
as §2

[8] = parameters: species or system mice (BALB/c or BALB/c nu/nu); settings: mouse, in vivo; remark: listed apart in the source
Description: as §3
Based on the amount of Gd contained in the kidneys of the control conjugate, the proportion of decrease in the amount of Gd contained in the kidneys of each of the conjugates having a peptide linker was determined.

[9] = parameters: species or system mice (BALB/c nu/nu); settings: mouse, in vivo; remark: listed apart in the source
Description: A Gd-labeled conjugate of the conjugate containing a peptide linker produced in one of the above Examples was administered from the tail vein of the tumor-bearing mice so that the protein mass was 0.02 mg (100 μL) per animal. As the tumor-bearing mice used in the present Example, mice (BALB/c nu/nu) that were in a tumor-bearing state brought about by transplanting human breast cancer cell line MDA-MB-468 (ATCC(registered trademark); HTB-132) at 5.0×10^6 cells/mouse subcutaneously on the back before administration of the sample were used. 24 hours after administration of the sample, the mice were sacrificed, the kidneys and the tumor were removed, and the amounts of Gd in the kidneys and in the tumor were measured using ICP-MS. The present test was carried out in 3 cases in each group, and the mean value of the 3 cases was calculated. The amount of Gd contained per kidney after administration was shown as a percentage of the amount of Gd administered (% of dose/tissue), and the amount of Gd contained per g of tumor tissue was shown as a percentage of the total amount of Gd administered (% of dose/g).

[10] = each conjugate run in duplicate, Table 54, read-out: EC50
[11] = each conjugate run in duplicate, Table 52, read-out: EC50

B1: [Gd/DOTA-NH-CH2-(1,4-Ph)-NH-C(═O)-Met-Ile-NH-(CH2)2-(A-4 and/or A-5)]p-Fab^5 (Fab, V domains shown)
VH: QVQLVQSGAEVKKPGASVKVSCKASGYTFTNYGLSWVRQAPGQGLEWMGENHPGSGIIYHNEKFRGRVTLTADRSTSTAYMELSSLRSEDTAVYYCARSSGTRGFDYWGQGTLVTVSS
VL: DVVMTQTPLSLSVTPGQPASISCRSSQSIVHSNGNTYLEWYLQKPGQSPQLLIYRVSNRFSGVPDRFSGSGSGTDFTLKISRVEAEDVGVYYCFQGSHGPWTFGQGTKLEIKR
modifications: labeling may sit on this chain; sites not stated; labeling portion (MW 1092) on amino groups of the Fab, sites and chain not stated; 1-3 per Fab by MS; Gln 1 pyroglutamic acid as Fab^5 is defined in paragraph 370
[1]
  EC50: 0.08 nM

B2: [Gd/DOTA-NH-CH2-(1,4-Ph)-NH-C(═O)-Met-Ile-NH-(CH2)2-(A-3)]p-Fab^5 (Fab, V domains shown)
VH: B1 VH
VL: B1 VL
modifications: labeling may sit on this chain; sites not stated; labeling portion (MW 1187) on amino groups of the Fab, sites and chain not stated; 1-2 per Fab by MS; Gln 1 pyroglutamic acid as Fab^5 is defined in paragraph 370
[1]
  EC50: 0.15 nM

B3: Ex-No 108, conjugate of Fab^5 without peptide linker (structure given only as drawing CHEM-US-00165) (Fab, V domains shown)
VH: B1 VH
VL: B1 VL
modifications: labeling may sit on this chain; sites not stated; low molecular weight molecule (MW 542) bound to the Fab, sites and chain not stated; 1-3 per Fab by MS; Gln 1 pyroglutamic acid as Fab^5 is defined in paragraph 370
[1]
  EC50: 0.07 nM
[2]
  EC50: 0.07 nM

B4: [Gd/DOTA]p-Fab^2 (conjugate)
heavy: EVQLVESGGGLVQPGGSLRLSCAASGFNIRDTYMHWVRQAPGKGLEWVARIDPANGNSRYVPKFQGRFTISADTSRNTAYLQMNSLRAEDTAVYYCAPFGYYVSDYAMAYWGQGTLVTVSSASTKGPSVFPLAPSSKSTSGGTAALGCLVKDYFPEPVTVSWNSGALTSGVHTFPAVLQSSGLYSLSSVVTVPSSSLGTQTYICNVNHKPSNTKVDKKVEPKSCD
light: DIQLTQSPSSLSASVGDRVTITCRAGESVDIFGVGFLHWYQQKPGKAPKLLIYRASNLESGIPSRFSGSGSRTDFTLTISSLQPEDFATYYCQQTNEDPYTFGQGTKVEIKRTVAAPSVFIFPPSDEQLKSGTASVVCLLNNFYPREAKVQWKVDNALQSGNSQESVTEQDSKDSTYSLSSTLTLSKADYEKHKVYACEVTHQGLSSPVTKSFNRGEC
[3]
  Renal residual amount (tumor-bearing mice) Mean: 25.83 % of dose/tissue
[4]
  Renal residual amount (normal mice) % of dose/tissue: 31.33 % of dose/tissue
[5]
  Renal residual amount (normal mice) Mean: 29.33 % of dose/tissue

B5: Ex-No 10: (Y—S1—X)p-Fab^2: Y Gd/DOTA; S1 bond; X -Met-Ile-Lys*-Z2(#N)— (conjugate)
heavy: B4 heavy
light: B4 light
[5]
  Renal residual amount (normal mice) % of dose/tissue: 20.10 % of dose/tissue
  Renal residual amount (normal mice) Proportion of decrease: 31.46%

B6: [Gd/DOTA-NH—CH2-(1,4-Ph)-NH—C(═O)-Met-Ile-NH—(CH2)2—Z1(#N)]p-Fab^2 (conjugate)
heavy: B4 heavy
light: B4 light
[3]
  Renal residual amount (tumor-bearing mice) % of dose/tissue: 5.77 % of dose/tissue
  Renal residual amount (tumor-bearing mice) Proportion of decrease: 77.68%
[5]
  Renal residual amount (normal mice) % of dose/tissue: 2.60 % of dose/tissue
  Renal residual amount (normal mice) Proportion of decrease: 91.13%

B7: P10-2: anti-human MUC1 antibody Fab fragment disclosed in International Publication WO2018/092885; heavy chain fragment SEQ ID NO: 8, light chain SEQ ID NO: 10 (antibody)
heavy: QVQLVQSGAEVKKPGASVKVSCKASGYTFTNYGLSWVRQAPGQGLEWMGENHPGSGIIYHNEKFRGRVTLTADRSTSTAYMELSSLRSEDTAVYYCARSSGTRGFDYWGQGTLVTVSSASTKGPSVFPLAPSSKSTSGGTAALGCLVKDYFPEPVTVSWNSGALTSGVHTFPAVLQSSGLYSLSSVVTVPSSSLGTQTYICNVNHKPSNTKVDKKVEPKSCD
light: DVVMTQTPLSLSVTPGQPASISCRSSQSIVHSNGNTYLEWYLQKPGQSPQLLIYRVSNRFSGVPDRFSGSGSGTDFTLKISRVEAEDVGVYYCFQGSHGPWTFGQGTKLEIKRTVAAPSVFIFPPSDEQLKSGTASVVCLLNNFYPREAKVQWKVDNALQSGNSQESVTEQDSKDSTYSLSSTLTLSKADYEKHKVYACEVTHQGLSSPVTKSFNRGEC
modifications: P10-2 Fab heavy chain fragment; Antibody light chain
[6]; EC50 value for each of 3 runs, Table 51, read-out: EC50 P10-2
  EC50: 0.06 nM
[7]; EC50 value for each of 3 runs, Table 53, read-out: EC50 P10-2
  EC50: 0.06 nM

B8: [Gd/DOTA-[2,5-(1,2,3,4-tetrahydroisoquinoline)]-C(═O)-Met-Gly-Lys*-C(═S)—NH-(1,4-Ph)-NH—C(═S)]p-Fab^5 (conjugate)
heavy: B7 heavy
light: B7 light
modifications: non-natural residues
[7]; [10]
  EC50: 0.19 nM

B9: [Gd/DOTA-NH—CH2-(1,4-Ph)-NH—C(═O)-Met-Ile-NH—(CH2)2-(A-4 and/or A-5)]p-Fab^5 (conjugate)
heavy: B7 heavy
light: B7 light
modifications: non-natural residues
[6]; [11]
  EC50: 0.08 nM
[8]
  Renal residual amount (normal mice) % of dose/tissue: 2.30 % of dose/tissue
  Renal residual amount (normal mice) Proportion of decrease: 93.03%
[9]
  Renal residual amount (tumor-bearing mice) % of dose/tissue: 3.17 % of dose/tissue
  Renal residual amount (tumor-bearing mice) Proportion of decrease: 90.87%

B10: [Gd/DOTA-NH—CH2-(1,4-Ph)-NH—C(═O)-Met-Ile-NH—(CH2)2—Z1(#N)]p-Fab^5 (conjugate)
heavy: B7 heavy
light: B7 light
modifications: non-natural residues
[7]; [10]
  EC50: 0.08 nM

B11: [Gd/DOTA-NH—CH2-(1,4-Ph)-NH—C(═O)-Met-Ile-NH—(CH2)2-(A-3)]p-Fab^5 (conjugate)
heavy: B7 heavy
light: B7 light
modifications: non-natural residues
[6]; [11]
  EC50: 0.15 nM
[8]
  Renal residual amount (normal mice) % of dose/tissue: 2.80 % of dose/tissue
  Renal residual amount (normal mice) Proportion of decrease: 91.52%
[9]
  Renal residual amount (tumor-bearing mice) % of dose/tissue: 4.13 % of dose/tissue
  Renal residual amount (tumor-bearing mice) Proportion of decrease: 88.08%
